In article PMC4464616, “SIRT6 protein deacetylase interacts with MYH DNA glycosylase, APE1 endonuclease, and Rad9–Rad1–Hus1 checkpoint clamp” (BMC Molecular Biology, 2015):

B2: FLAG-tagged mouse Sirt6 (FLAG-mSirt6), wild type (natural protein, UniProt P59941 1-334, looked up)
chain: MSVNYAAGLSPYADKGKCGLPEIFDPPEELERKVWELARLMWQSSSVVFHTGAGISTASGIPDFRGPHGVWTMEERGLAPKFDTTFENARPSKTHMALVQLERMGFLSFLVSQNVDGLHVRSGFPRDKLAELHGNMFVEECPKCKTQYVRDTVVGTMGLKATGRLCTVAKTRGLRACRGELRDTILDWEDSLPDRDLMLADEASRTADLSVTLGTSLQIRPSGNLPLATKRRGGRLVIVNLQPTKHDRQADLRIHGYVDEVMCRLMKHLGLEIPAWDGPCVLDKALPPLPRPVALKAEPPVHLNGAVHVSYKSKPNSPILHRPPKRVKTEAAPS
notes: mouse Sirt6, full length cDNA in pcDNA3.1; about 90% pure

Key:
GST-hMYH(1-350) = molecular target: T1, GST-hMYH(1-350) (human, UniProt Q9UIF7-3 1-350); assay: pull-down; GST fusion protein immobilised on beads; 50 ug/ml ethidium bromide added for 30 min before the partner; bound protein detected by Western blot (FLAG, hAPE1 or His antibody); in some panels a further purified partner (hAPE1, mSirt6, hHus1) was added; details: both partners purified
T1 construct: also called MYHΔC3; ΔC3; source: purified, immobilised on beads
T1 sequence (looked up): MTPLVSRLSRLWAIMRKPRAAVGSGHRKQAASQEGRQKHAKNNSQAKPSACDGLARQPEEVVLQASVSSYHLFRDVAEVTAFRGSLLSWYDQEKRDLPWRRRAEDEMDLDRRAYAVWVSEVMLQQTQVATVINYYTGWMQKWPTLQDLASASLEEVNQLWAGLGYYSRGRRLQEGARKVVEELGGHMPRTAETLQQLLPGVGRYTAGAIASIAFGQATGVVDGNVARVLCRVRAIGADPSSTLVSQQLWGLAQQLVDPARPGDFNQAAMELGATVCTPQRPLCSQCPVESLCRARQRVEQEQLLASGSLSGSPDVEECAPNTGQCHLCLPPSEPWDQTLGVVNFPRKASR

GST-hRad9 = molecular target: T2, GST-hRad9 (human, UniProt Q99638 1-391); assay: as above; details: both partners purified
T2 construct: human Rad9, subunit of the Rad9-Rad1-Hus1 checkpoint clamp; also called GST-Rad9; GST-tagged hRad9; source: immobilised on beads
T2 sequence (looked up): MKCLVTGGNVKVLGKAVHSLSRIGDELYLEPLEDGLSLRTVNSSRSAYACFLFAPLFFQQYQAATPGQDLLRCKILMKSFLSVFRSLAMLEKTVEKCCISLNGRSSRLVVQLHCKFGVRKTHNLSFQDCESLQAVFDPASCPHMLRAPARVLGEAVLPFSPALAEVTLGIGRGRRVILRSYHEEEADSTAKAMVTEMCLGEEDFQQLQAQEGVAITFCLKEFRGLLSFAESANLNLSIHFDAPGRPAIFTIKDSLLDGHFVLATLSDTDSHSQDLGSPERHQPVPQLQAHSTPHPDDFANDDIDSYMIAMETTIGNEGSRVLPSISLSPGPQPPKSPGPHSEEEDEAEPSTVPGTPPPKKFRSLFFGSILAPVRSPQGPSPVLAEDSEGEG

GST-hMYH(1-350) Q324H = molecular target: T3, GST-hMYH(1-350) Q324H (human, UniProt Q9UIF7-3 1-350, Q324H); assay: as above; details: both partners purified
T3 construct: human MutY homolog (MYH, MUTYH), residues 1-350 with Q324H, a variant found in MAP patients; also called hMYH^Q324H; Q338H according to the new nomenclature; source: purified, immobilised on beads
T3 sequence (looked up): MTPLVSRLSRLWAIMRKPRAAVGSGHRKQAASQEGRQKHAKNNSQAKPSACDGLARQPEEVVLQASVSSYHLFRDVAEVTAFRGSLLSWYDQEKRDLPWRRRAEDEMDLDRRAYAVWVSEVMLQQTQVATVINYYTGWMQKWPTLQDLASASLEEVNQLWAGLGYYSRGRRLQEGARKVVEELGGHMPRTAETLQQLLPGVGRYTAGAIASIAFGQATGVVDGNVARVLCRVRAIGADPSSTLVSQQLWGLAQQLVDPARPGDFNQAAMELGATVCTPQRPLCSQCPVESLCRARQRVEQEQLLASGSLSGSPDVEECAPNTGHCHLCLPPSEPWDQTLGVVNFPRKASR

[1] = molecular target: human APE1 (hAPE1), recombinant (human, UniProt P27695 1-318); assay: cell-based or functional assay
Chain of human APE1 (hAPE1), recombinant (P27695 whole entry): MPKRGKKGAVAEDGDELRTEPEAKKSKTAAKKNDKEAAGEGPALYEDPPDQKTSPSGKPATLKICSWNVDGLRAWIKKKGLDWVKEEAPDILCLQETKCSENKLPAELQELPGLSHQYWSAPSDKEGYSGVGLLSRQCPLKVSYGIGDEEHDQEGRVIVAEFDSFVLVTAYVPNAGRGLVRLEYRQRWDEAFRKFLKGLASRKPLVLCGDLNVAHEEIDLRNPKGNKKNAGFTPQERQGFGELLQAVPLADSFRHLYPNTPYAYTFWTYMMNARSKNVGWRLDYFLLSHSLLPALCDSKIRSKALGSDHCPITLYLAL

[2] = molecular target: T4, mouse Myh (mMyh), recombinant (mouse, UniProt Q99P21 1-515); assay: cell-based or functional assay
T4 sequence (looked up): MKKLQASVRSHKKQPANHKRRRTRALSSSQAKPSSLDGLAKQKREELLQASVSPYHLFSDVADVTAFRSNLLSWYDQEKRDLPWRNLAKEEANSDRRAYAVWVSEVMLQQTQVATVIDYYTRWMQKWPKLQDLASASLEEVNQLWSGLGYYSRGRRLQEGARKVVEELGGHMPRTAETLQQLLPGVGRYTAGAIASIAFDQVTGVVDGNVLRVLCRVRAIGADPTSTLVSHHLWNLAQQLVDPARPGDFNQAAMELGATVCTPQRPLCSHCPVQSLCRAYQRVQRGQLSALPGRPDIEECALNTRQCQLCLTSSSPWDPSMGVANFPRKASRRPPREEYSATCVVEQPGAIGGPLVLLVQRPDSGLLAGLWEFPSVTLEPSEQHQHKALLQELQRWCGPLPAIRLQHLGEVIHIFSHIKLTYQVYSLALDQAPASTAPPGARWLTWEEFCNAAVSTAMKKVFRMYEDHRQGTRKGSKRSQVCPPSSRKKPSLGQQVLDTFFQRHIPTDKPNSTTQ

[3] = molecular target: B2; assay: pull-down; GST fusion protein immobilised on beads; 50 ug/ml ethidium bromide added for 30 min before the partner; bound protein detected by Western blot (FLAG, hAPE1 or His antibody); in some panels a further purified partner (hAPE1, mSirt6, hHus1) was added; details: both partners purified

B1: His-tagged human Hus1 (hHus1) (natural protein, UniProt O60921 1-280, looked up)
chain: MKFRAKIVDGACLNHFTRISNMIAKLAKTCTLRISPDKLNFILCDKLANGGVSMWCELEQENFFNEFQMEGVSAENNEIYLELTSENLSRALKTAQNARALKIKLTNKHFPCLTVSVELLSMSSSSRIVTHDIPIKVIPRKLWKDLQEPVVPDPDVSIYLPVLKTMKSVVEKMKNISNHLVIEANLDGELNLKIETELVCVTTHFKDLGNPPLASESTHEDRNVEHMAEVHIDIRKLLQFLAGQQVNPTKALCNIVNNKMVHFDLLHEDVSLQYFIPALS
notes: human Hus1, subunit of the Rad9-Rad1-Hus1 checkpoint clamp; pET21a usually adds a C-terminal His6 (surmise); source: E. coli BL21-Star with pET21a-hHus1, purified
- binding result (GST-hMYH(1-350)): binds

Binder: B2
- binding result (GST-hRad9): binds
- binding result (GST-hMYH(1-350) Q324H): binds
- fold stimulation of binding with a tenfold excess of hAPE1, against no hAPE1 (GST-hMYH(1-350)): 3 fold
- 3'-phosphodiesterase activity of hAPE1 on 3'-FAM-labeled U/G-DNA (0.01 nM hAPE1, 1-16 nM mSirt6); fold stimulation at a Sirt6/APE1 ratio of 400 [1]: 2 fold
- AP endonuclease activity of hAPE1 on FAM-labeled THF/G-DNA (0.002 nM hAPE1, 1-8 nM mSirt6); fold stimulation at a Sirt6/APE1 ratio of 3,000 [1]: 2 fold
- mMyh glycosylase activity on FAM-labeled A/G^o-DNA (0.5 nM mMyh, 1-32 nM mSirt6); fold stimulation at a Sirt6/Myh ratio of 32 [2]: 3 fold

B3: GST-hRad1 (natural protein, human, UniProt O60671 1-282, looked up)
chain: MPLLTQQIQDEDDQYSLVASLDNVRNLSTILKAIHFREHATCFATKNGIKVTVENAKCVQANAFIQAGIFQEFKVQEESVTFRINLTVLLDCLSIFGSSPMPGTLTALRMCYQGYGYPLMLFLEEGGVVTVCKINTQEPEETLDFDFCSTNVINKIILQSEGLREAFSELDMTSEVLQITMSPDKPYFRLSTFGNAGSSHLDYPKDSDLMEAFHCNQTQVNRYKISLLKPSTKALVLSCKVSIRTDNRGFLSLQYMIRNEDGQICFVEYYCCPDEEVPESES
notes: human Rad1, subunit of the Rad9-Rad1-Hus1 checkpoint clamp; also called GST-Rad1; GST-tagged hRad1; source: immobilised on beads
- binding result [3]: binds

B4: GST-hMYH(65-350) (domain or fragment, human, UniProt Q9UIF7-3 65-350, looked up)
chain: ASVSSYHLFRDVAEVTAFRGSLLSWYDQEKRDLPWRRRAEDEMDLDRRAYAVWVSEVMLQQTQVATVINYYTGWMQKWPTLQDLASASLEEVNQLWAGLGYYSRGRRLQEGARKVVEELGGHMPRTAETLQQLLPGVGRYTAGAIASIAFGQATGVVDGNVARVLCRVRAIGADPSSTLVSQQLWGLAQQLVDPARPGDFNQAAMELGATVCTPQRPLCSQCPVESLCRARQRVEQEQLLASGSLSGSPDVEECAPNTGQCHLCLPPSEPWDQTLGVVNFPRKASR
notes: also called MYHΔC5; ΔC5; source: purified, immobilised on beads
- binding result [3]: binds
